Molecular target: HA-AMFR (UniProt Q9UKV5 1-643)
Experiment: co-IP

HA-AMFR, sequence (Q9UKV5 whole entry): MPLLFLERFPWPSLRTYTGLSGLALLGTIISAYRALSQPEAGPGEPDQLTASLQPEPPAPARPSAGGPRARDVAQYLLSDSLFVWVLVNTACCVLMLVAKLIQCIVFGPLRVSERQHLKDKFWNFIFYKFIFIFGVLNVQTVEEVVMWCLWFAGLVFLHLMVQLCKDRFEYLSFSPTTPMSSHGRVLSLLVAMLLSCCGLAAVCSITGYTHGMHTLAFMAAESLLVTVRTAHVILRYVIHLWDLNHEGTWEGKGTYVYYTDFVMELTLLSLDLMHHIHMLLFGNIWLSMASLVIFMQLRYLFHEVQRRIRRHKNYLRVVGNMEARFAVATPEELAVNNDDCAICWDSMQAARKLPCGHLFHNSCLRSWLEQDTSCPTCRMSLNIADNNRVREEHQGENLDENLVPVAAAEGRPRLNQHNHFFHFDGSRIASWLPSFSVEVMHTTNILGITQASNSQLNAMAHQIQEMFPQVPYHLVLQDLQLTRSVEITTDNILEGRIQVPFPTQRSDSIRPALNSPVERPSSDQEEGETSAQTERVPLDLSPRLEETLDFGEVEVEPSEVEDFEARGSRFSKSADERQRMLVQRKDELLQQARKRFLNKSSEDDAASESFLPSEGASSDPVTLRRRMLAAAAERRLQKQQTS

B1: FAM134B (construct and tag not told for these supplementary panels) (natural protein)
chain: MASPAPPEHAEEGCPAPAAEEQAPPSPPPPQASPAERQQQEEEAQEAGAAEGAGLQVEEAAGRAAAAVTWLLGEPVLWLGCRADELLSWKRPLRSLLGFVAANLLFWFLALTPWRVYHLISVMILGRVIMQIIKDMVLSRTRGAQLWRSLSESWEVINSKPDERPRLSHCIAESWMNFSIFLQEMSLFKQQSPGKFCLLVCSVCTFFTILGSYIPGVILSYLLLLCAFLCPLFKCNDIGQKIYSKIKSVLLKLDFGIGEYINQKKRERSEADKEKSHKDDSELDFSALCPKISLTVAAKELSVSDTDVSEVSWTDNGTFNLSEGYTPQTDTSDDLDRPSEEVFSRDLSDFPSLENGMGTNDEDELSLGLPTELKRKKEQLDSGHRPSKETQSAAGLTLPLNSDQTFHLMSNLAGDVITAAVTAAIKDQLEGVQQALSQAAPIPEEDTDTEEGDDFELLDQSELDQIESELGLTQDQEAEAQQNKKSSGFLSNLLGGH
B1: binds.

Reference: article PMC11541587 (Nature Communications, 2024)
